Like-named read-outs stand apart in the source and are kept apart here.

By stoichiometry N is commonly meant a count of units in the complex or per binding partner.

Data set [1] deals with the molecule itself. Briefly: SEC.
Data set [2] concerns the molecule itself. Kind of data set: SEC. The source holds these as a separate data set. In general terms: Size exclusion chromatography separates by hydrodynamic size, large species first.

B1: human DHHC15 (Palmitoyl Acyl Transferase, hDHHC15) fused to mVenus (enzyme, UniProt Q96MV8 1-337, looked up)
chain: MRRGWKMALSGGLRCCRRVLSWVPVLVIVLVVLWSYYAYVFELCLVTVLSPAEKVIYLILYHAIFVFFTWTYWKSIFTLPQQPNQKFHLSYTDKERYENEERPEVQKQMLVDMAKKLPVYTRTGSGAVRFCDRCHLIKPDRCHHCSVCAMCVLKMDHHCPWVNNCIGFSNYKFFLQFLAYSVLYCLYIATTVFSYFIKYWRGELPSVRSKFHVLFLLFVACMFFVSLVILFGYHCWLVSRNKTTLEAFCTPVFTSGPEKNGFNLGFIKNIQQVFGDKKKFWLIPIGSSPGDGHSFPMRSMNESQNPLLANEETWEDNEDDNQDYPEGSSSLAVETET
For B1, the “stoichiometry N” value in data set [1] turned out to be 2.

B2: human DHHC15 (Palmitoyl Acyl Transferase, hDHHC15), purified, tag cleaved (enzyme, UniProt Q96MV8 1-337, looked up)
chain: MRRGWKMALSGGLRCCRRVLSWVPVLVIVLVVLWSYYAYVFELCLVTVLSPAEKVIYLILYHAIFVFFTWTYWKSIFTLPQQPNQKFHLSYTDKERYENEERPEVQKQMLVDMAKKLPVYTRTGSGAVRFCDRCHLIKPDRCHHCSVCAMCVLKMDHHCPWVNNCIGFSNYKFFLQFLAYSVLYCLYIATTVFSYFIKYWRGELPSVRSKFHVLFLLFVACMFFVSLVILFGYHCWLVSRNKTTLEAFCTPVFTSGPEKNGFNLGFIKNIQQVFGDKKKFWLIPIGSSPGDGHSFPMRSMNESQNPLLANEETWEDNEDDNQDYPEGSSSLAVETET
Take B2: the “stoichiometry N” value in data set [2] amounted to 2.

These data come from article PMC7373347 (Current protocols in cell biology, 2020).
